± gives the standard deviation of the averaged measurements.
Experiments:
[1] = system: VchCAST RNA-guided transposition machinery (E. coli BL21(DE3) host, lacZ target); assay: relative integration efficiency (T-RL orientation) vs wild-type transposon end (log2 (normalized fold change)); transposon end mutated: right end (5 bp flank + 75 bp right end); higher = more efficient transposition
Summary of the method: (§1)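 In E. coli BL21(DE3), a T7-driven effector plasmid was paired with a pUC57 mini-transposon donor containing 1549 left-end or 1849 right-end barcoded transposon variants. Cells grew on plates with 0.1 mM IPTG at 37°C for 18 h. Relative integration efficiency was derived from Illumina reads of genomic integration junctions against input plasmids, as a log-transformed output/input barcode fold change normalised to reference barcodes.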

[2] = system: VchCAST RNA-guided transposition machinery (E. coli BL21(DE3) host, lacZ target); assay: relative integration efficiency (T-LR orientation) vs wild-type transposon end (log2 (normalized fold change)); transposon end mutated: right end (5 bp flank + 75 bp right end); higher = more efficient transposition
Summary of the method: as §1

| Sequence | relative integration efficiency (log2) [1] | relative integration efficiency (log2) [2] |
| --- | --- | --- |
| ACATTTGTTGATACAACCATAAAATGATAATTAATAATTATTTCACCCATAAATTGATAATTATCAACAAACGCCCGGTCGCGGTACTCTGATCATAGTCAGACCAACATTGCTACGACCCGTATTC | -2.91 ± 0.43 | 0.365 ± 0.079 |
| ACATTTGTTGATACAACCATAAAATGATAATTAATAATTATTTCACCCATAAATTGATAATTATCACACCCATAAATTGATATTGCCTCTGATCATAGTCAGACCAACATTGCTACGACCCGTATTC | -3.8 ± 0.49 | -2.62 ± 1.1 |
| ACATTTGTTGATACAACCATAAAATGATAATTAATAATTCACCCATAAATTGATAATTATCAACAAACGCCCGGTCGCGGTACTCTGATCATAGTCAGACCAACATTGCTACGACCCGTATTCGCAC | -1.96 ± 0.21 | 1.02 ± 0.13 |
| ACATTTGTTGATACAACCATAAAATGATAATTAATAATTCACCCATAAATTGATAATTATCACACCCATAAATTGATATTGCCTCTGATCATAGTCAGACCAACATTGCTACGACCCGTATTCGCAC | -2.69 ± 0.18 | 1.16 ± 0.069 |
| ACATTTGTTGATACAACCATAAAATGATAATTAATACACCCATAAATTGATAATTATCAACAAACGCCCGGTCGCGGTACTCTGATCATAGTCAGACCAACATTGCTACGACCCGTATTCGCACCGA | -2.6 ± 0.28 | 0.59376 ± 0.00039 |
| ACATTTGTTGATACAACCATAAAATGATAATTAATACACCCATAAATTGATAATTATCACACCCATAAATTGATATTGCCTCTGATCATAGTCAGACCAACATTGCTACGACCCGTATTCGCACCGA | -3.47 ± 0.4 | -0.393 ± 0.24 |
| ACATTTGTTGATACAACCATAAAATGATAATTAATCACCCATAAATTGATAATTATCAACAAACGCCCGGTCGCGGTACTCTGATCATAGTCAGACCAACATTGCTACGACCCGTATTCGCACCGAC | -1.83 ± 0.42 | 1.09 ± 0.077 |
| ACATTTGTTGATACAACCATAAAATGATAATTAATCACCCATAAATTGATAATTATCACACCCATAAATTGATATTGCCTCTGATCATAGTCAGACCAACATTGCTACGACCCGTATTCGCACCGAC | -1.92 ± 0.059 | -0.602 ± 0.3 |
| ACATTTGTTGATACAACCATAAAATGATAATTACAAAACGCCCGGTCGCCGGCGACACAAACGCCCGGTCGCGGTAAGAGGATCATAGTCAGACCAACATTGCTACGACCCGTATTCGCACCGACAC | -2.05 ± 0.22 | 1.07 ± 0.12 |
| ACATTTGTTGATACAACCATAAAATGATAATTACAAAACTAAATTGATAATTATCACACCCATAAATTGATATTGCCTCTGATCATAGTCAGACCAACATTGCTACGACCCGTATTCGCACCGACAC | -2.29 ± 0.15 | -2.92 ± 0.79 |
| ACATTTGTTGATACAACCATAAAATGATAATTACAAACATAAATTGATAATTATCACACCCATAAATTGATATTGCCTCTGATCATAGTCAGACCAACATTGCTACGACCCGTATTCGCACCGACAC | -0.0203 ± 0.014 | -0.426 ± 0.17 |
| ACATTTGTTGATACAACCATAAAATGATAATTACAACCATAAAATGATAATTATCACAACCATAAAATGATAATTACTCTGATCATAGTCAGACCAACATTGCTACGACCCGTATTCGCACCGACAC | -0.193 ± 0.0064 | -0.536 ± 0.21 |
| ACATTTGTTGATACAACCATAAAATGATAATTACAACCATAAAATGATAATTATCACAACCATAAAGTGATATTTACTCTGATCATAGTCAGACCAACATTGCTACGACCCGTATTCGCACCGACAC | -0.175 ± 0.14 | -0.296 ± 0.44 |
| ACATTTGTTGATACAACCATAAAATGATAATTACAACCATAAAATGATAATTATCACAACCATAAGTTGATATTTTCTCTGATCATAGTCAGACCAACATTGCTACGACCCGTATTCGCACCGACAC | -0.0104 ± 0.27 | -0.17 ± 0.32 |
| ACATTTGTTGATACAACCATAAAATGATAATTACAACCATAAAATGATAATTATCACAACCATATATTGATATCTCCTCTGATCATAGTCAGACCAACATTGCTACGACCCGTATTCGCACCGACAC | -0.16 ± 0.32 | 0.049 ± 0.22 |
| ACATTTGTTGATACAACCATAAAATGATAATTACAACCATAAAATGATAATTATCACACCCATAAATTGATAATTACTCTGATCATAGTCAGACCAACATTGCTACGACCCGTATTCGCACCGACAC | 0.0421 ± 0.03 | -0.0822 ± 0.2 |
| ACATTTGTTGATACAACCATAAAATGATAATTACAACCATAAAATGATAATTATCACACCCATAAATTGATATTGCCTCTGATCATAGTCAGACCAACATTGCTACGACCCGTATTCGCACCGACAC | -0.0716 ± 0.12 | -0.38 ± 0.42 |
| ACATTTGTTGATACAACCATAAAATGATAATTACAACCATAAAATGATAATTATCAGTGGGTATTTAACTATAACGCTCTGATCATAGTCAGACCAACATTGCTACGACCCGTATTCGCACCGACAC | -0.267 ± 0.21 | 2.54 ± 0.061 |

| Sequence | relative integration efficiency (log2) [1] | relative integration efficiency (log2) [2] |
| --- | --- | --- |
| ACATTTGTTGATACAACCATAAAATGATAATTACAACCATAAAATGATAATTATCATAATTATCATTTTATGGTTGCTCTGATCATAGTCAGACCAACATTGCTACGACCCGTATTCGCACCGACAC | 0.241 ± 0.067 | 1.96 ± 0.16 |
| ACATTTGTTGATACAACCATAAAATGATAATTACAACCATAAAATGATAATTATGATAATTATCATTTTATGGTTGCTCTGATCATAGTCAGACCAACATTGCTACGACCCGTATTCGCACCGACAC | 0.301 ± 0.039 | 1.99 ± 0.068 |
| ACATTTGTTGATACAACCATAAAATGATAATTACAACCATAAAGTGATATTTATCACAACCATAAAATGATAATTACTCTGATCATAGTCAGACCAACATTGCTACGACCCGTATTCGCACCGACAC | -0.258 ± 0.14 | -0.0691 ± 0.38 |
| ACATTTGTTGATACAACCATAAAATGATAATTACAACCATAAAGTGATATTTATCACAACCATAAAGTGATATTTACTCTGATCATAGTCAGACCAACATTGCTACGACCCGTATTCGCACCGACAC | 0.0131 ± 0.077 | -0.228 ± 0.22 |
| ACATTTGTTGATACAACCATAAAATGATAATTACAACCATAAAGTGATATTTATCACAACCATAAGTTGATATTTTCTCTGATCATAGTCAGACCAACATTGCTACGACCCGTATTCGCACCGACAC | -0.0894 ± 0.09 | -0.251 ± 0.14 |
| ACATTTGTTGATACAACCATAAAATGATAATTACAACCATAAAGTGATATTTATCACAACCATATATTGATATCTCCTCTGATCATAGTCAGACCAACATTGCTACGACCCGTATTCGCACCGACAC | -0.331 ± 0.17 | -0.276 ± 0.022 |
| ACATTTGTTGATACAACCATAAAATGATAATTACAACCATAAAGTGATATTTATCACACCCATAAATTGATAATTACTCTGATCATAGTCAGACCAACATTGCTACGACCCGTATTCGCACCGACAC | 0.00575 ± 0.15 | -0.0135 ± 0.3 |
| ACATTTGTTGATACAACCATAAAATGATAATTACAACCATAAAGTGATATTTATCACACCCATAAATTGATATTGCCTCTGATCATAGTCAGACCAACATTGCTACGACCCGTATTCGCACCGACAC | -0.128 ± 0.23 | -0.0327 ± 0.15 |
| ACATTTGTTGATACAACCATAAAATGATAATTACAACCATAAAGTGATATTTATCAGTGGGTATTTAACTATAACGCTCTGATCATAGTCAGACCAACATTGCTACGACCCGTATTCGCACCGACAC | -0.586 ± 0.2 | 2.5 ± 0.1 |
| ACATTTGTTGATACAACCATAAAATGATAATTACAACCATAAGTTGATATTTTTCACAACCATAAAATGATAATTACTCTGATCATAGTCAGACCAACATTGCTACGACCCGTATTCGCACCGACAC | -0.308 ± 0.21 | -0.0321 ± 0.022 |
| ACATTTGTTGATACAACCATAAAATGATAATTACAACCATAAGTTGATATTTTTCACAACCATAAAGTGATATTTACTCTGATCATAGTCAGACCAACATTGCTACGACCCGTATTCGCACCGACAC | 0.274 ± 0.2 | 0.666 ± 0.12 |
| ACATTTGTTGATACAACCATAAAATGATAATTACAACCATAAGTTGATATTTTTCACAACCATAAGTTGATATTTTCTCTGATCATAGTCAGACCAACATTGCTACGACCCGTATTCGCACCGACAC | 0.0355 ± 0.25 | -0.201 ± 0.37 |
| ACATTTGTTGATACAACCATAAAATGATAATTACAACCATAAGTTGATATTTTTCACAACCATATATTGATATCTCCTCTGATCATAGTCAGACCAACATTGCTACGACCCGTATTCGCACCGACAC | -0.125 ± 0.19 | 0.235 ± 0.079 |
| ACATTTGTTGATACAACCATAAAATGATAATTACAACCATAAGTTGATATTTTTCACACCCATAAATTGATAATTACTCTGATCATAGTCAGACCAACATTGCTACGACCCGTATTCGCACCGACAC | -0.168 ± 0.11 | -0.141 ± 0.51 |
| ACATTTGTTGATACAACCATAAAATGATAATTACAACCATAAGTTGATATTTTTCACACCCATAAATTGATATTGCCTCTGATCATAGTCAGACCAACATTGCTACGACCCGTATTCGCACCGACAC | -0.349 ± 0.2 | 0.0596 ± 0.086 |
| ACATTTGTTGATACAACCATAAAATGATAATTACAACCATAAGTTGATATTTTTCAGTGGGTATTTAACTATAACGCTCTGATCATAGTCAGACCAACATTGCTACGACCCGTATTCGCACCGACAC | -0.515 ± 0.22 | 2.72 ± 0.21 |
| ACATTTGTTGATACAACCATAAAATGATAATTACAACCATATATTGATATCTCTCACAACCATAAAATGATAATTACTCTGATCATAGTCAGACCAACATTGCTACGACCCGTATTCGCACCGACAC | -0.257 ± 0.18 | 0.146 ± 0.15 |

From the supplement of paper PMC10201428
